Source: doi:10.1101/2023.03.09.531992

Target: full-length, extra-membrane clientized (Thr1273Glu) S tail, biotinylated (BLI) (SARS-CoV-2)
Experiment: BLI

B1: S. pombe αWD40 domain (N-terminal WD40 domain of α-COPI), wild type (domain or fragment)
chain: MEMLTKFESRSSRAKGVAFHPTQPWILTSLHNGRIQLWDYRMGTLLDRFDGHDGPVRGIAFHPTQPLFVSGGDDYKVNVWNYKSRKLLFSLCGHMDYVRVCTFHHEYPWILSCSDDQTIRIWNWQSRNCIAILTGHSHYVMCAAFHPSEDLIVSASLDQTVRVWDISGLRMKNAAPVSMSLEDQLAQAHNSISNDLFGSTDAIVKFVLEGHDRGVNWCAFHPTLPLILSAGDDRLVKLWRMTASKAWEVDTCRGHFNNVSCCLFHPHQELILSASEDKTIRVWDLNRRTAVQTFRRDNDRFWFITVHPKLNLFAAAHDSGVMVFKLE
fold slower binding rate than the wild-type S tail: 2.4 fold | fold tighter binding than the wild-type S tail: 11 fold
